{"source": "paper PMC3315506", "about": "“A Single Gene Target of an ETS-Family Transcription Factor Determines Neuronal CO2-Chemosensitivity”", "key": {"[1]": {"target": "T1, GST::ETS-5 (Caenorhabditis elegans, UniProt Q18579 1-208)", "T1 sequence": "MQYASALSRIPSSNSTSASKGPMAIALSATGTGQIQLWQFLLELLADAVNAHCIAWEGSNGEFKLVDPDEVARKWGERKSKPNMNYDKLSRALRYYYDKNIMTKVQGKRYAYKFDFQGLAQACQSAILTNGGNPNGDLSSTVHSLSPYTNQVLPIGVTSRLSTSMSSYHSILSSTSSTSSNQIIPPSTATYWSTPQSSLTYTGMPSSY", "experiment": "EMSA; also blocked by excess unlabeled probe (10-500x); EMSA: 1 ug GST::ETS-5 or 2 ug GST, 0.1 pmol 3'-biotin duplex, room temperature 20 min, 6% polyacrylamide gel in 0.5x TBE; binding buffer, salt and pH not stated", "settings": "protein: recombinant; tags: N-terminal GST (pGEX); label: 3'-biotin (labeled probe); blunt"}, "[2]": {"target": "T1, GST::ETS-5", "experiment": "competition; scrambled competitor 10-500x molar excess over labeled N1; did not block; EMSA: 1 ug GST::ETS-5 or 2 ug GST, 0.1 pmol 3'-biotin duplex, room temperature 20 min, 6% polyacrylamide gel in 0.5x TBE; binding buffer, salt and pH not stated", "settings": "protein: recombinant; tags: N-terminal GST (pGEX); label: unlabeled; blunt"}}, "data": [{"binder": "gcy-9 promoter ETS-site probe (45 bp) (dsDNA) DNA 1: ATCCACTTCCGATGGGCCCTTCCGGCATGATAAGAAGTGAGTGGC DNA 2: GCCACTCACTTCTTATCATGCCGGAAGGGCCCATCGGAAGTGGAT", "values": [{"measurement": "binding result", "setting": "[1]", "result": "binds"}]}, {"binder": "scrambled competitor (dsDNA) DNA 1: CTGACCCCGTGTCGCTAATAGACTCAGTTACGCAAGATGG DNA 2: CCATCTTGCGTAACTGAGTCTATTAGCGACACGGGGTCAG", "values": [{"measurement": "binding result", "setting": "[2]", "result": "no binding"}]}]}
